In general, Kd refers to the equilibrium constant for the complex coming apart.

Data set [1] concerns the target T1, R6-GST (synthetic construct, UniProt P08515 =RRRRRR+1-218, internal_change). The data set can be described thus: pull-down; AS1 buffer; ITC: 50 mM phosphate pH 7.6, 207 mM NaCl, 25 C; pull-down: AS1 buffer (composition not given), 4 C, or ARGI buffer (50 mM Tris-HCl, 300 mM NaCl, 5 mM EDTA, 0.01% Tween 20, pH 7.5). The note with it: protein: recombinant; tags: N-terminal R6 (CPP tag under study); chain copies: 2; label: 5'-biotin (pull-down).

In the next data set the target is R6-PCNA (human, UniProt P12004 =RRRRRR+1-261, internal_change). The description is as above. The note with it: protein: recombinant; tags: N-terminal R6; chain copies: 3; label: 5'-biotin (pull-down).
The next data set concerns the target Tat49-57-PCNA (human, UniProt P12004 =MRKKRRQRRRGGGGGGHPW+1-261, internal_change). The data set is described as above. The note with it: protein: recombinant; tags: N-terminal Tat49-57; chain copies: 3; label: 5'-biotin (pull-down).
Data set [2] addresses T1, R6-GST. Nature of the data set: ITC; 25 C; n 2.61; Table 1 dG -35.8 kJ/mol would fit about 532 nM (R6/R8 possibly swapped); ITC: 50 mM phosphate pH 7.6, 207 mM NaCl, 25 C; pull-down: AS1 buffer (composition not given), 4 C, or ARGI buffer (50 mM Tris-HCl, 300 mM NaCl, 5 mM EDTA, 0.01% Tween 20, pH 7.5). The note with it: protein: recombinant; tags: N-terminal R6 (CPP tag under study); chain copies: 2; label: 5'-biotin (pull-down); four mfold structures predicted.

R6-PCNA, sequence (P12004 other isoform, or with tags, fused parts or gaps): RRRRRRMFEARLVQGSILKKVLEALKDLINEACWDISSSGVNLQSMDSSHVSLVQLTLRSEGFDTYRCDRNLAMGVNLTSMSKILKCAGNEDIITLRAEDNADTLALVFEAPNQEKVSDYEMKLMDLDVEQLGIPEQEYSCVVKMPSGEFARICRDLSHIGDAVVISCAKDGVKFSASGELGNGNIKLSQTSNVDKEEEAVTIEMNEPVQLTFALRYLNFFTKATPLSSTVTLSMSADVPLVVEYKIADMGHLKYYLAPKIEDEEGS
Tat49-57-PCNA, sequence (P12004 other isoform, or with tags, fused parts or gaps): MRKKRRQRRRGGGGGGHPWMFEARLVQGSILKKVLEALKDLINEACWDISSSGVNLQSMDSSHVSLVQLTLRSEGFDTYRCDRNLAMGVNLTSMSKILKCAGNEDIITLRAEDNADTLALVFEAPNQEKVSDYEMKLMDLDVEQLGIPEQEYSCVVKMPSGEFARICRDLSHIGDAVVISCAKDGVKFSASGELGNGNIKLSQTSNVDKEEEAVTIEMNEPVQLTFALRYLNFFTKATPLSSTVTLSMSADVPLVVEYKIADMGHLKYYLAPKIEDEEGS

B1: reference aptamer (ssDNA)
DNA: CATGCTTCCCCAGGGAGATGACTGACTGACTGACTGACTGACTGACTGACTGACTGACTGGAGGAACATGCGTCGCAAAC
Regarding B1, the binding result with R6-GST [1], in the data set with R6-PCNA and with Tat49-57-PCNA was “no binding” in each case.

B2: 24-10 aptamer full length (ssDNA)
DNA: CATGCTTCCCCAGGGAGATGGACGGCACGTCTTTGTAATTGGTTCTGAGTTCCGTTGTGGGAGGAACATGCGTCGCAAAC
As for B2, the binding result with R6-GST [1], with R6-PCNA and with Tat49-57-PCNA was “binds” in each case.
Consider CTTTGTAATTGGTTCTGAGTTCCGTTGTGGGAGGAACATG (ssDNA) [AR aptamer (24-10 nt 31-70; 5'/-30 and 3'/-10)], for which, in the data set with R6-GST [2], the Kd was 943 ± 37 nM.
